Experimental data as given in IntAct's records for PubMed 24793651.

B1: Autophagy-related protein 13 (Saccharomyces cerevisiae), Q06628 (parent)
chain: MVAEEDIEKQVLQLIDSFFLKTTLLICSTESSRYQSSTENIFLFDDTWFEDHSELVSELPEIISKWSHYDGRKELPPLVVETYLDLRQLNSSHLVRLKDHEGHLWNVCKGTKKQEIVMERWLIELDNSSPTFKSYSEDETDVNELSKQLVLLFRYLLTLIQLLPTTELYQLLIKSYNGPQNEGSSNPITSTGPLVSIRTCVLDGSKPILSKGRIGLSKPIINTYSNALNESNLPAHLDQKKITPVWTKFGLLRVSVSYRRDWKFEINNTNDELFSARHASVSHNSQGPQNQPEQEGQSDQDIGKRQPQFQQQQQPQQQQQQQQQQQRQHQVQTQQQRQIPDRRSLSLSPCTRANSFEPQSWQKKVYPISRPVQPFKVGSIGSQSASRNPSNSSFFNQPPVHRPSMSSNYGPQMNIEGTSVGSTSKYSSSFGNIRRHSSVKTTENAEKVSKAVKSPLQPQESQEDLMDFVKLLEEKPDLTIKKTSGNNPPNINISDSLIRYQNLKPSNDLLSEDLSVSLSMDPNHTYHRGRSDSHSPLPSISPSMHYGSLNSRMSQGANASHLIARGGGNSSTSALNSRRNSLDKSSNKQGMSGLPPIFGGESTSYHHDNKIQKYNQLGVEEDDDDENDRLLNQMGNSATKFKSSISPRSIDSISSSFIKSRIPIRQPYHYSQPTTAPFQAQAKFHKPANKLIDNGNRSNSNNNNHNGNDAVGVMHNDEDDQDDDLVFFMSDMNLSKEG
partner: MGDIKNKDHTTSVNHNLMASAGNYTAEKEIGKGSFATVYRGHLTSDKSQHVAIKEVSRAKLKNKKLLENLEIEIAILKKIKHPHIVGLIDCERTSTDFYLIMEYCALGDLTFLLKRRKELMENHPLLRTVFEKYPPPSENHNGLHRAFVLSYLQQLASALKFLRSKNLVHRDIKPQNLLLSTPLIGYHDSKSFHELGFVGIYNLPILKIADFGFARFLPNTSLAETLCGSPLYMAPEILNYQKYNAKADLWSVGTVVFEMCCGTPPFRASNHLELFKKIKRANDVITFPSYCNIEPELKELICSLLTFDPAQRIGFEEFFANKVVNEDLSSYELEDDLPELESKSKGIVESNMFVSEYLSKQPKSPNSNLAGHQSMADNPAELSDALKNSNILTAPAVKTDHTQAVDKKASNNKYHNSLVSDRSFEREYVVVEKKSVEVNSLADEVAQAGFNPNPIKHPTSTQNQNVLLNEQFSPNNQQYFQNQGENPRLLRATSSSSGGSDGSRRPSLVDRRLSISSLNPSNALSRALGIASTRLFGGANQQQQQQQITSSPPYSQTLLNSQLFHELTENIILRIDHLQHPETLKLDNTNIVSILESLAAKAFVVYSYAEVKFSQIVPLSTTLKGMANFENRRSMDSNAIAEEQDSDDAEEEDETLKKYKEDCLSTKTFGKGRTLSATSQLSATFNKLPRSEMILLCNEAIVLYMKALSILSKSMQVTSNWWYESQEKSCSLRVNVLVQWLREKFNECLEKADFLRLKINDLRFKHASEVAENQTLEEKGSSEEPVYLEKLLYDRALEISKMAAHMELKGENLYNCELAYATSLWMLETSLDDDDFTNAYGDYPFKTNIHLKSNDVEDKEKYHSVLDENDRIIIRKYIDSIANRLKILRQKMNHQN
B2: Autophagy-related protein 13 (Saccharomyces cerevisiae), Q06628 (parent)
chain: B1 chain
partner: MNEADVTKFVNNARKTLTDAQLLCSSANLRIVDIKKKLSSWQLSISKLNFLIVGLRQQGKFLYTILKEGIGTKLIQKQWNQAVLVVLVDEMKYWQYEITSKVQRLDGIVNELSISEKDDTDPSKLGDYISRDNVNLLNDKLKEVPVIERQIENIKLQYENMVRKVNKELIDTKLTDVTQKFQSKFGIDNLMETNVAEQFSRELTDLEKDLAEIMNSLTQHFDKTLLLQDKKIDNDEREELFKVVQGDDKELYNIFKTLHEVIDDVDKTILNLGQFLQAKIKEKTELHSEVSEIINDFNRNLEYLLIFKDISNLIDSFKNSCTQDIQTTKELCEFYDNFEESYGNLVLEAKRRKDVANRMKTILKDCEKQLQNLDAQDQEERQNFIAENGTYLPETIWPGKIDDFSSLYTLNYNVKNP
B3: Autophagy-related protein 17 (Saccharomyces cerevisiae), Q06410 (parent)
chain: B2 partner
partner: B1 chain

Variants of: B1
Conditions: with atg1_yeast ATG1, P53104

| Variant | effect of a mutation on the interaction |
| --- | --- |
| F468A | decreasing interaction strength |

Variants of: B1
Conditions: with atg1_yeast ATG1, P53104
Remark: another data set of the same source

| Variant | effect of a mutation on the interaction |
| --- | --- |
| F468A | disrupting interaction strength |
| L472A | disrupting interaction strength |

Variants of: B1
Conditions: with atg1_yeast ATG1, P53104
Remark: another data set of the same source

| Variant | effect of a mutation on the interaction |
| --- | --- |
| F468A;L472A | disrupting interaction strength |

Variants of: B2
Conditions: with atg17_yeast ATG17, Q06410

| Variant | effect of a mutation on the interaction |
| --- | --- |
| S428A;S429A | disrupting interaction strength |
| R434A;R435A | disrupting interaction strength |
| F430A;I433A | disrupting interaction strength |

Variants of: B2
Conditions: with atg17_yeast ATG17, Q06410
Remark: another data set of the same source

| Variant | effect of a mutation on the interaction |
| --- | --- |
| S429D | disrupting interaction strength |

Variants of: B3
Conditions: with atg13_yeast ATG13, Q06628

| Variant | effect of a mutation on the interaction |
| --- | --- |
| MNEADVTKFVNNARKTLTDAQLLCSSANLRIVDIKKKLSSWQLSISKLNFLIVGLRQQGKFLYTILKEGIGTKLIQKQWNQAVLVVLVDEMKYWQYEITSKVQRLDGIVNELSISEKDDTDPSKLGDYISRDNVNLLNDKLKEVPVIERQIENIKLQYENMVRKVNKELIDTKLTDVTQKFQSKFGIDNLMETNVAEQFSRELTDLEKDLAEIMNSLTQHFDKTLLLQDKKIDNDEREELFKVVQGADKELYNIFKTLHEVIDDVDKTILNLGQFLQAKIKEKTELHSEVSEIINDFNRNLEYLLIFKDISNLIDSFKNSCTQDIQTTKELCEFYDNFEESYGNLVLEAKRRKDVANRMKTILKDCEKQLQNLDAQDQEERQNFIAENGTYLPETIWPGKIDDFSSLYTLNYNVKNP [D247A] | disrupting interaction strength |
| MNEADVTKFVNNARKTLTDAQLLCSSANLRIVDIKKKLSSWQLSISKLNFLIVGLRQQGKFLYTILKEGIGTKLIQKQWNQAVLVVLVDEMKYWQYEITSKVQRLDGIVNELSISEKDDTDPSKLGDYISRDNVNLLNDKLKEVPVIERQIENIKLQYENMVRKVNKELIDTKLTDVTQKFQSKFGIDNLMETNVAEQFSRELTDLEKDLAEIMNSLTQHFDKTLLLQDKKIDNDEREELFKVVQGADKALYNIFKTLHEVIDDVDKTILNLGQFLQAKIKEKTELHSEVSEIINDFNRNLEYLLIFKDISNLIDSFKNSCTQDIQTTKELCEFYDNFEESYGNLVLEAKRRKDVANRMKTILKDCEKQLQNLDAQDQEERQNFIAENGTYLPETIWPGKIDDFSSLYTLNYNVKNP [D247A;E250A] | disrupting interaction strength |
| MNEADVTKFVNNARKTLTDAQLLCSSANLRIVDIKKKLSSWQLSISKLNFLIVGLRQQGKFLYTILKEGIGTKLIQKQWNQAVLVVLVDEMKYWQYEITSKVQRLDGIVNELSISEKDDTDPSKLGDYISRDNVNLLNDKLKEVPVIERQIENIKLQYENMVRKVNKELIDTKLTDVTQKFQSKFGIDNLMETNVAEQFSRELTDLEKDLAEIMNSLTQHFDKTLLLQDKKIDNDEREEAFKAVQGDDKELYNIFKTLHEVIDDVDKTILNLGQFLQAKIKEKTELHSEVSEIINDFNRNLEYLLIFKDISNLIDSFKNSCTQDIQTTKELCEFYDNFEESYGNLVLEAKRRKDVANRMKTILKDCEKQLQNLDAQDQEERQNFIAENGTYLPETIWPGKIDDFSSLYTLNYNVKNP [L240A;V243A] | decreasing interaction strength |
| MNEADVTKFVNNARKTLTDAQLLCSSANLRIVDIKKKLSSWQLSISKLNFLIVGLRQQGKFLYTILKEGIGTKLIQKQWNQAVLVVLVDEMKYWQYEITSKVQRLDGIVNELSISEKDDTDPSKLGDYISRDNVNLLNDKLKEVPVIERQIENIKLQYENMVRKVNKELIDTKLTDVTQKFQSKFGIDNLMETNVAEQFSRELTDLEKDLAEAMNALTQHFDKTLLLQDKKIDNDEREELFKVVQGDDKELYNIFKTLHEVIDDVDKTILNLGQFLQAKIKEKTELHSEVSEIINDFNRNLEYLLIFKDISNLIDSFKNSCTQDIQTTKELCEFYDNFEESYGNLVLEAKRRKDVANRMKTILKDCEKQLQNLDAQDQEERQNFIAENGTYLPETIWPGKIDDFSSLYTLNYNVKNP [I213A;S216A] | decreasing interaction strength |
